The values that follow come from PMC7104407, “DBC1, p300, HDAC3, and Siah1 coordinately regulate ELL stability and function for expression of its target genes” (Proceedings of the National Academy of Sciences of the …, 2020).

The target in the assay is T1, GST–ELL (human, UniProt P55199 1-621).
T1 construct: ELL (ELL1), human elongation factor; also called purified recombinant GST–ELL; source: bacterial expression system, purified
In words: pull-down; in vitro direct interaction assay with purified GST–ELL or GST and purified HDAC3. The conditions noted are these: both partners purified.

B1: HDAC3, purified (enzyme, human, UniProt O15379 1-428, looked up)
chain: MAKTVAYFYDPDVGNFHYGAGHPMKPHRLALTHSLVLHYGLYKKMIVFKPYQASQHDMCRFHSEDYIDFLQRVSPTNMQGFTKSLNAFNVGDDCPVFPGLFEFCSRYTGASLQGATQLNNKICDIAINWAGGLHHAKKFEASGFCYVNDIVIGILELLKYHPRVLYIDIDIHHGDGVQEAFYLTDRVMTVSFHKYGNYFFPGTGDMYEVGAESGRYYCLNVPLRDGIDDQSYKHLFQPVINQVVDFYQPTCIVLQCGADSLGCDRLGCFNLSIRGHGECVEYVKSFNIPLLVLGGGGYTVRNVARCWTYETSLLVEEAISEELPYSEYFEYFAPDFTLHPDVSTRIENQNSRQYLDQIRQTIFENLKMLNHAPSVQIHDVPADLLTYDRTDEADAEERGPEENYSRPEAPNEFYDGDHDNDKESDVEI
notes: histone deacetylase 3, human; also called purified HDAC3; source: overexpressed in mammalian 293T cells, purified (high salt-based purification method)
With B1, the binding result is reported as “binds”.
